# From paper PMC4943861 (ACS chemical biology, 2015)
# B1: SNAPtag-4: monovalent conjugate of 4 to SNAPtag (protein)
# chain: GPGSDKDCEMKRTTLDSPLGKLELSGCEQGLHEIIFLGKGTSAADAVEVPAPAAVLGGPEPLMQATAWLNAYFHQPEAIEEFPVPALHHPVFQQESFTRQVLWKLLKVVKFGEVISYSHLAALAGNPAATAAVKTALSGNPVPILIPCHRVVQGDLDVGGYEGGLAVKEWLLAHEGHRLGKR
# modifications: SNAPtag is engineered
# B2: SNAP(pE59)-4: bivalent inhibitor of activation loop-phosphorylated ERK2: SNAP(pE59) labeled with 4 (protein)
# chain: GPGSDKDCEMKRTTLDSPLGKLELSGCEQGLHEIIFLGKGTSAADAVEVPAPAAVLGGPEPLMQATAWLNAYFHQPEAIEEFPVPALHHPVFQQESFTRQVLWKLLKVVKFGEVISYSHLAALAGNPAATAAVKTALSGNPVPILIPCHRVVQGDLDVGGYEGGLAVKEWLLAHEGHRLGKRDLGKKLLEAARAGQDDEVRILMANGADVNALDEDGLTPLHLAAQLGHLEIVEVLLKYGADVNAEDNFGITPLHLAAIRGHLEIVEVLLKHGADVNAQDKFGKTAFDISIDNGNEDLAEILQKLN
# Molecular target: activation loop-phosphorylated ERK2 (Homo sapiens, UniProt P28482)
# Sequence (P28482 whole entry): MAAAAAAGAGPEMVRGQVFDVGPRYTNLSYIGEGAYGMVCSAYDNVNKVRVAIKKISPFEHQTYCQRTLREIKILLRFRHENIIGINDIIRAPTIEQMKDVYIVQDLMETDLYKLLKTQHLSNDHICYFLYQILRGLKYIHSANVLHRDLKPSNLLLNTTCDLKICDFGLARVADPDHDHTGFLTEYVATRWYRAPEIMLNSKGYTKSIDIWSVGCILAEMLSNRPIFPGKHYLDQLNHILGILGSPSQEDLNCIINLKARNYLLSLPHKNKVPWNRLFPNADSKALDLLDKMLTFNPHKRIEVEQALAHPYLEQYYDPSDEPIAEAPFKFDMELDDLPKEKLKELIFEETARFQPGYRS
# Assay: In vitro activity assay against activation loop-phosphorylated ERK2
# Format: biochemical
# Conditions: read-out: IC50 against ERK2, triplicate
row,IC50,Molecule
1,3.9 µM,B1
2,0.0008 µM,B2
